# ± gives the uncertainty stated by the source.
# Test: protein stability index of a GFP-peptide fusion (yeast GPS) (PSI 1-4); higher = more stable; sorted into four equal gates, so the index is relative within each strain
# Method in brief: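 The protein stability index combines read frequencies across sorting gates, each weighted by its gate number and then summed. To obtain those frequencies, a pooled yeast library of GFP fusions to tiled 17-residue yeast protein peptides, on a plasmid also expressing Cherry, was grown to mid-log phase in leucine-free medium. The cells were sorted into four equal gates by GFP/Cherry ratio before plasmid amplification by PCR and Illumina sequencing.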
Sequence,protein stability index (doa10∆),protein stability index (pdr5∆),protein stability index (san1∆),protein stability index (ubr1∆)
AQLAKAKTELNEVSLAI [SMC2],3 ± 0.077,2.75 ± 0.074,1.82 ± 0.097,2.61 ± 0.046
ARHKKKVENLDYMYENG [YML031W/NDC1],3.41 ± 0.15,3.37 ± 0.14,3.08 ± 0.12,–
GWSLVGRILQNLLHSYM [YML103C/NUP188],1.85 ± 0.087,1.18 ± 0.06,1.18 ± 0.092,1.05 ± 0.03
QSSEDVITIKSRIRVKI [RPB7],2.4 ± 0.11,2.41 ± 0.075,2.51 ± 0.078,3 ± 0.12
LLEFFELVFSKGVYLIL [YML103C/NUP188],2.13 ± 0.087,2.4 ± 0.093,1.97 ± 0.093,2.26 ± 0.076
TTKERKKSRLGNSFHLM [PRP8],2.7 ± 0.066,2.83 ± 0.065,2.57 ± 0.062,2.48 ± 0.054
STPYLEILVEESGLRPV [PCI8],1.57 ± 0.048,1.55 ± 0.091,1.54 ± 0.19,2.17 ± 0.091
MASYMLNSFAFELCSLG [YJR042W/NUP85],1.29 ± 0.17,1.51 ± 0.16,–,1.5 ± 0.23
KKSVNKLDKQINMADRS [POP6],2.73 ± 0.062,2.94 ± 0.08,2.63 ± 0.079,2.83 ± 0.054
ICKNCSAILLSETDKRQ [RPO31],2.59 ± 0.086,2.85 ± 0.058,2.81 ± 0.068,2.96 ± 0.041
CLEDPEKPFNENRFQDT [POP4],2.68 ± 0.15,3.02 ± 0.16,2.64 ± 0.24,3.03 ± 0.099
ETLSIFTNVPLNLEQVT [YJL039C/NUP192],2.33 ± 0.044,2.53 ± 0.049,2.33 ± 0.055,2.42 ± 0.044
NNPQVVNAITVAQQQVQ [SNF5],1.69 ± 0.049,1.78 ± 0.047,1.42 ± 0.075,1.99 ± 0.035
LKNCKISNINIPISSET [SMC1],2.81 ± 0.17,2.95 ± 0.11,3.05 ± 0.08,2 ± 0.067
ELKDLETQVEVEKNEIG [NNF1],3.05 ± 0.19,3.24 ± 0.11,2.97 ± 0.17,3.33 ± 0.13
APNNSNGGSEEEITCAL [MED7],3.45 ± 0.094,3.45 ± 0.13,3.42 ± 0.095,3.31 ± 0.085
FKSPIDNSESHPFIPLL [RRP6],1.95 ± 0.07,2.23 ± 0.053,2.03 ± 0.075,1.82 ± 0.052
PLQNIHVRKVKLLKQPK [RPS1A],2.69 ± 0.075,2.82 ± 0.074,2.71 ± 0.051,2.53 ± 0.065
NTRKNMSISLESSKALA [DIS3],1.96 ± 0.082,2.24 ± 0.1,1.96 ± 0.13,2.08 ± 0.078
KHISASIDNDFSEEKAE [YAR002W/NUP60],3.04 ± 0.082,3.02 ± 0.065,3.23 ± 0.066,2.97 ± 0.059

Sequence,protein stability index (doa10∆),protein stability index (pdr5∆),protein stability index (san1∆),protein stability index (ubr1∆)
DLKAQFQELDSKKQRNN [RPN9],3.21 ± 0.088,3.2 ± 0.08,3.09 ± 0.078,3.33 ± 0.052
SNSSELEPDYQAPFSTS [MED1],2.7 ± 0.044,2.97 ± 0.057,2.82 ± 0.073,3.05 ± 0.046
SLSEGCDILVATPGRLI [PRP28],3.47 ± 0.12,3.23 ± 0.084,3.25 ± 0.047,3.28 ± 0.05
NRQTLMFTATMTPVIEK [PRP28],2.56 ± 0.061,2.62 ± 0.052,2.42 ± 0.052,2.44 ± 0.043
RPPVKAILQEKILSILN [ECM29],1.46 ± 0.058,1.83 ± 0.084,1.71 ± 0.14,2 ± 0.11
SLPSKLTKYKEMERIVK [SRP68],2.59 ± 0.055,2.55 ± 0.064,2.42 ± 0.046,2.86 ± 0.044
LWDIMGDRQRLGEEHPL [RPT1],–,–,3.31 ± 0.23,–
MAKVEVNLAAIPLGKNV [RIP1],3.33 ± 0.3,–,–,–
SATSTTEQTKSKNPLSL [YLR335W/NUP2],2.95 ± 0.04,3.01 ± 0.047,2.58 ± 0.055,2.96 ± 0.044
KHEDFVEGISEVQARKS [RPT5],3.7 ± 0.24,–,–,3.41 ± 0.2
RQIRPIMERIKSSLSLR [ITC1],1.26 ± 0.06,1.65 ± 0.075,1.35 ± 0.087,1.42 ± 0.054
TDNVSMYPSPTGVMIGI [PRP8],2.65 ± 0.065,2.41 ± 0.063,2.02 ± 0.086,2.3 ± 0.041
RLAKKPSMKKIKIEPSA [SIR3],2.48 ± 0.094,3.06 ± 0.099,2.76 ± 0.071,2.88 ± 0.065
NSIKNVPPILIILPLDN [SSN2],2.01 ± 0.21,1.61 ± 0.11,–,1.82 ± 0.068
CAEGIFVVKLDTVDRLI [GAL11],2.89 ± 0.12,3.13 ± 0.11,3.02 ± 0.13,2.62 ± 0.092
ILLEPIYEVDITVHAPL [SNU114],2.57 ± 0.049,2.56 ± 0.06,2.43 ± 0.085,2.47 ± 0.046
DADGDIDMGEDKENVPV [DPB4],3.12 ± 0.17,3.29 ± 0.13,3.01 ± 0.15,3.66 ± 0.13
LDNKGSGEDAEEELWNS [YIL149C/MLP2],3.31 ± 0.17,2.92 ± 0.14,3.16 ± 0.093,3.22 ± 0.1
IKDTANDNDITVKENES [UBP6],2.88 ± 0.1,2.45 ± 0.071,1.85 ± 0.075,1.41 ± 0.047
SLFHTAVSVANGFMHAG [RPN2],1.18 ± 0.087,1.51 ± 0.077,1.29 ± 0.25,1.57 ± 0.13

# From the supplement of paper PMC9732359
